Sequences and labels used below:
B1: Flag.Apo2L.DR5-1 (ligand)
chain: VRERGPQRVAAHITGTRGRSNTLSSPNSKNEKALGRKINSWESSRSGHSFLSNLHLRNGELVIHEKGFYYIYSQTAFKFKEEIKENTKNDKQMVQYIYKYTSYPDPILLMKSARNSCWSKDAEYGLYSIYQGGIFELKENDRIFVSVTNEALIDMDHEASFFGAFLVG
notes: not shown: N-terminal flag tag from pFLAG-MAC
B2: Flag.Apo2L.DR5-23 (ligand)
chain: B1 chain with K80R, A151S, I153L, D156E
notes: as for B1
B3: Flag.Apo2L.DR5-2 (ligand)
chain: B1 chain with A151H
notes: as for B1
B4: Flag.Apo2L.DR5-8 (ligand)
chain: B1 chain with A76Q, K80R, A151R, I153L, D154Q
notes: also called Flag-Apo21.DR5-8; not shown: N-terminal flag tag from pFLAG-MAC
B5: Flag.Apo2L.DR4-8 (ligand)
chain: B1 chain with K78R, K80S, N86V, K88R, Y100W, S102D, A151H
notes: as for B1
B6: Flag.Apo2L.DR4-9 (ligand)
chain: B1 chain with K78R, K80S, N86R, K88R, Y100W, S102D, A151H
notes: as for B1
B7: Flag.Apo2L.DR5-21 (ligand)
chain: B1 chain with A151D, I153L, D154N, D156E
notes: as for B1
B8: DR4-selective phage clone 8 (ligand)
chain: SEETISTVQEKQQNISPLVRERGPQRVAAHITGTRGRSNTLSSPNSKNEKALGRKINSWESSRSGHSFLSNLHLRNGELVIHEKGFYYIYSQTAFRFSEEIKEVTRNDKQMVQYIYKWTDYPDPILLMKSARNSCWSKDAEYGLYSIYQGGIFELKENDRIFVSVTNEHLIDMDHEASFFGAFLVG
notes: also called DR4-8
B9: DR4-selective phage clone 9 (ligand)
chain: B8 chain with V104R
notes: also called DR4-9
B10: DR4-selective phage clone 11 (ligand)
chain: B8 chain with V104G, R106S
notes: also called DR4-11
B11: DR4-selective phage clone 13 (ligand)
chain: B8 chain with S98K, V104G, R106G
notes: also called DR4-13
B12: Apo2L.DR5-8 (ligand)
chain: B1 chain with A76Q, K80R, A151R, I153L, D154Q
notes: also called Apo2L/TRAIL.DR5-8
B13: Apo2L.DR5-8C (ligand)
chain: B1 chain with A76Q, K80R, A151H, I153L
notes: Subcloned into pAPOK5.0 (114-281 form)
B14: Apo2L.DR5-8B (ligand)
chain: B1 chain with A76Q, K80R, A151H
notes: as for B13
B15: Apo2L/TRAIL(114-281) mutant DR5-5 (ligand)
chain: B1 chain with A76S, K78R, K80T, A151G, I153L, D156N
notes: Untagged, from pAPOK5.0
B16: Apo2L/TRAIL(114-281) mutant DR5-11 (ligand)
chain: B1 chain with K78R, A151G, I153V, D156S
notes: Untagged, from pAPOK5.0
B17: Apo2L/TRAIL(114-281) mutant DR5-21 (ligand)
chain: B1 chain with A151D, I153L, D154N, D156E
notes: Untagged, from pAPOK5.0; h-0007 lists D267Q
B18: Apo2L/TRAIL(114-281) mutant DR5-23 (ligand)
chain: B1 chain with K80R, A151S, I153L, D156E
notes: Untagged, from pAPOK5.0
B19: Apo2L/TRAIL(114-281) mutant DR5-4 (ligand)
chain: B1 chain with K78R, K80R, A151Q, I153L, D156N
notes: Untagged, from pAPOK5.0

Where a chain is given by its changes, count along the chain named. Numbers in names are those of the source.

The target of one test is T1, DR5-IgG (human, UniProt O14763 56-184).
T1 construct: also called Apo-2-IgG; not shown: IgG part; prepared as in WO98/51793, not described here
In words: BIAcore; against Flag.Apo2L.WT. How it is done:
(§1) Briefly, dissociation constants (Kd) for binding of Apo-2L variants (see Tables II and III) to immobilized receptor immunoadhesins were determined from surface plasmon resonance (SPR) measurements on a Pharmacia BIAcore 3000. DR5-IgG (also referred to as Apo-2-IgG) and DcR2-IgG receptor immunoadhesins were prepared as described in WO98/51793 published Nov. 19, 1998 and WO99/10484 published Mar. 9, 1999, respectively. DR4-IgG was prepared as follows. […] Sensorgrams were recorded for Apo-2L binding at concentrations ranging from 15.6 nM to 500 nM in 2-fold increments. The kinetics constants were determined by non-linear regression analysis and used to calculate the binding constants.
A general note: In SPR one partner is held on a chip, and binding of the other changes the refractive index at the surface.
For the molecule B1, the “DR5 KD (mut/wt)” value amounted to 2.2 ratio.

Take B2: the “DR5 KD (mut/wt)” value stood at 2.4 ratio.

Regarding B3, the “DR5 KD (mut/wt)” value came out at 1.9 ratio.

With B4, the “DR5 KD (mut/wt)” value came to 0.8 ratio.

B5: the “DR5 KD (mut/wt)” value was 1100 ratio.

Consider B6, for which the “DR5 KD (mut/wt)” value came to 1200 ratio.

As to B7, the “DR5 KD (mut/wt)” value stood at 1 ratio.

The next test has as its target T1, DR5-IgG. Nature of the test: spot ELISA, phage on coated protein. A general note: In an ELISA, binding on a coated surface is turned into a signal by an enzyme label.
Take B8: the binding result is listed as “no binding”.

Turning to B9, the binding result is “no binding”.

For the next test, the target named is T2, BSA (UniProt P02769 25-607).
T2 construct: Control protein of the spot ELISA
Nature of the test: spot ELISA, phage on coated protein.
On to B10, for which the binding result is listed as “no binding”.

As for B8, the binding result is listed as “no binding”.

In the case of B11, the binding result is given as “no binding”.

As for B9, the binding result is “no binding”.

A further test addresses T1, DR5-IgG. In words: BIAcore, immobilized receptor-IgG.
B12: the “DR5-binding (ratio relative to wild-type Apo2L)” value worked out at 0.6 ratio.

Regarding B13, the “DR5-binding (ratio relative to wild-type Apo2L)” value was determined as 0.6 ratio.

Take B14: the “DR5-binding (ratio relative to wild-type Apo2L)” value came to 0.6 ratio.

In another test the target is T1, DR5-IgG. Nature of the test: BIAcore, immobilized receptor-IgG; against wild-type Apo2L/TRAIL(114-281). As to the method:
as §1
KD values determined by BIAcore analysis are reported relative to the value calculated for the wild-type protein. Apoptosis-induction is evaluated from the ED₅₀ value (ng/mL) in the presence and absence of 2 μg/mL M2 antibody (Sigma).
Regarding B15, the “KD ratio (mutant/wt)” value came to 2.5 ratio.

Consider B16, for which the “KD ratio (mutant/wt)” value was determined as 2.2 ratio.

Consider B17, for which the “KD ratio (mutant/wt)” value was 1.2 ratio.

For the molecule B18, the “KD ratio (mutant/wt)” value came to 2.4 ratio.

With B19, the “KD ratio (mutant/wt)” value stood at 1.3 ratio.

The target in the next test is T1, DR5-IgG. In words: AlphaQuest (CARB-AQ) displacement of biotinylated Apo2L/TRAIL from receptor-IgG; against Flag-Apo2L.WT.
Regarding B1, the “IC50 ratio (mutant/wt)” value was found to be 2.4 ratio.

For B2, the “IC50 ratio (mutant/wt)” value came to 2.3 ratio.

Take B3: the “IC50 ratio (mutant/wt)” value is 2.8 ratio.

Turning to B4, the “IC50 ratio (mutant/wt)” value came to 0.7 ratio.

On to B7, for which the “IC50 ratio (mutant/wt)” value was found to be 1.9 ratio.

For a further test, the target named is T3, DcR2-IgG (UniProt Q9UBN6 56-211).
T3 sequence (Q9UBN6 whole entry, species assumed, looked up): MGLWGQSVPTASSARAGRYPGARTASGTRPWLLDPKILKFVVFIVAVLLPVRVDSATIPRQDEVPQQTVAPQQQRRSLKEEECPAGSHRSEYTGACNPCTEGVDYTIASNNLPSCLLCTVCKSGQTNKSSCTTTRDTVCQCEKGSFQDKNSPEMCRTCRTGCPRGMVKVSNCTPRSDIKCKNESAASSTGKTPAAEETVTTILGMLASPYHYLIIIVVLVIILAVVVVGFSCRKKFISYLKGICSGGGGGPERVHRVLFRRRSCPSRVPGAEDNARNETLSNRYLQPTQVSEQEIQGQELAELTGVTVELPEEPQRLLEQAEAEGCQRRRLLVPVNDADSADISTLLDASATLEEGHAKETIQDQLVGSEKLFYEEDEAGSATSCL
Described as above.
For B1, the “IC50 ratio (mutant/wt)” value is 32 ratio.

Regarding B2, the “IC50 ratio (mutant/wt)” value worked out at 24 ratio.

With B3, the “IC50 ratio (mutant/wt)” value stood at 5 ratio.

Consider B5, for which the “IC50 ratio (mutant/wt)” value is 15 ratio.

Take B6: the “IC50 ratio (mutant/wt)” value came to 18 ratio.

In the case of B7, the “IC50 ratio (mutant/wt)” value came out at 9.4 ratio.

A further test deals with T4, DcR1 receptor-IgG (UniProt O14798 26-236).
T4 construct: Captured as receptor-IgG on Protein A beads; construct not described
T4 sequence (O14798 whole entry, species assumed, looked up): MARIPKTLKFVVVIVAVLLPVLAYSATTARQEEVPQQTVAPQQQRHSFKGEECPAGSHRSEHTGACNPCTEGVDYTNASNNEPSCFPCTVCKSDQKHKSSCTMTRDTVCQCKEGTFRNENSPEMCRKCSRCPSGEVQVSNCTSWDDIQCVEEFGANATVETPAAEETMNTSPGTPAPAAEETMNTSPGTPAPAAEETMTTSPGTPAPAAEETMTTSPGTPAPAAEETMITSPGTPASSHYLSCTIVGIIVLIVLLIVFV
The test is described as above.
Turning to B5, the “IC50 ratio (mutant/wt)” value was found to be 5.5 ratio.

On to B6, for which the “IC50 ratio (mutant/wt)” value amounted to 4 ratio.

A further test deals with T1, DR5-IgG. In words: competition phage ELISA: phage clone on wells coated with DR4-IgG, competed by rising soluble DR5-IgG, bound phage detected with anti-M13 antibody-HRP, A450. As to the method: Relative binding strengths for 4 of the clones from the DR4 library were determined by competition phage ELISA (FIGS. 15 and 16). In this assay, a fixed concentration of phage is added to wells coated with receptor-IgG in the presence of an increasing concentration of receptor-IgG in solution. After incubation to allow binding and washing to remove unbound phage, the bound phage is determined with the HRP-coupled, anti-M13 antibody (Pharmacia). Analysis of the ELISA signal as a function of receptor-IgG concentration in solution by using a 4-parameter fit yields the IC50 value. Since the IC50 value will vary with phage concentration, the phage clones were first titered to determine the dilution giving equal signal strength for the 4 clones.
Turning to B10, the binding result was “no binding (tested: 1000 nM)”.

In the case of B11, the binding result is given as “no binding (tested: 1000 nM)”.

Source of the values: patent US20120165267A1 (Genentech, published 2012).
